Measurements from article PMC3582033 (Cell, 2011).

System: HP1γ binding to H3 peptide containing K9me3 as the sole modification
Assay: TRIM33 competition with HP1γ for H3 peptide, K9me3 only
Conditions: 3-fold molar excess of TRIM33

competition with HP1γ: ineffective at competing with HP1γ
B1: TRIM33: Flag-tagged TRIM33 protein (protein)
chain: MAENKGGGEAESGGGGSGSAPVTAGAAGPTAQEAEPPLAAVLVEEEEEEGGRAGAEGGAAGPDDGGVAAASSSSAPAASVPAASVGSAVPGGAASTPAPAAAPAPAPAPAPAPAPAPAPAPAPGSSSGPPLGPPASLLDTCAVCQQSLQSRREAEPKLLPCLHSFCLRCLPEPERQLSVPIPGGSNGDVQQVGVIRCPVCRQECRQIDLVDNYFVKDTSEAPSSSDEKSEQVCTSCEDNASAVGFCVECGEWLCKTCIEAHQRVKFTKDHLIRKKEDVSESVGTSGQRPVFCPVHKQEQLKLFCETCDRLTCRDCQLLEHKEHRYQFLEEAFQNQKGAIENLLAKLLEKKNYVHFAATQVQNRIKEVNETNKRVEQEIKVAIFTLINEINKKGKSLLQQLENVTKERQMKLLQQQNDITGLSRQVKHVMNFTNWAIASGSSTALLYSKRLITFQLRHILKARCDPVPAANGAIRFHCDPTFWAKNVVNLGNLVIESKPAPGYTPNVVVGQVPPGTNHISKTPGQINLAQLRLQHMQQQVYAQKHQQLQQMRLQQPPAPIPTTTATTQQHPRQAAPQMLQQQPPRLISVQTMQRGNMNCGAFQAHQMRLAQNAARIPGIPRHSAPQYSMMQPHLQRQHSNPGHAGPFPVVSAHNPINPTSPTTATMANANRGPTSPSVTAIELIPSVTNPENLPSLPDIPPIQLEDAGSSSLDNLLSRYISGSHLPPQPTSTMNPSPGPSALSPGSSGLSNSHTPVRPPSTSSTGSRGSCGSSGRTAEKSAHSFKSDQVKVKQEPGTEEEICSFSGAVKQEKTEDGRRSACMLSSPESSLTPPLSTNLHLESELDTLTGLENHVKTEPTDISESCKQSGLSNLVNGKSPIRNLMHRSARIGGDGNSKDDDPNEDWCAVCQNGGDLLCCEKCPKVFHLTCHVPTLLSFPSGDWICTFCRDIGKPEVEYDCDNMQHSKKGKTAQGLSPVDQRKCERLLLYLYCHELSIEFQEPVPVSIPNYYKIIKKPMDLSTVKKKLQKKHSQHYQIPDDFVADVRLIFKNCERFNEMMKVVQVYADTQEINLKGDSEVAKAGKAVALYFEDKLSEIYSDRTFTPLPEFEQDEDDGEVTEDSDEDFIQPRRKRLKSDERPVHIK
